Measurements: US20240392013A1, “IL1RAP ANTIBODIES AND USES THEREOF” (STELEXIS THERAPEUTICS, LLC, priority 2021, published 2024)

T1: hIL1RAP (Homo sapiens, UniProt Q9NPH3)
T1 sequence (Q9NPH3 21-367 limits assumed): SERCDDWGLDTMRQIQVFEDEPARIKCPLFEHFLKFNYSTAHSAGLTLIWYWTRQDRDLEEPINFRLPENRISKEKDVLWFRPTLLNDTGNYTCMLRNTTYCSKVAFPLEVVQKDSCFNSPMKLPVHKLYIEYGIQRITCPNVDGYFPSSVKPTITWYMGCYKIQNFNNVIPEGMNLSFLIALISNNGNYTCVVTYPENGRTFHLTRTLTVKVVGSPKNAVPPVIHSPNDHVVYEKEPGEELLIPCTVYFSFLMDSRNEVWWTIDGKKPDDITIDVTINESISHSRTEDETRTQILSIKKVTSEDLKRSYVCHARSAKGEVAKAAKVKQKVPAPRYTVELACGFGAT

B1: 74804_27I24A: anti-IL1RAP mAb; VH SEQ ID NO:13, VL SEQ ID NO:29, λ light chain (antibody, V domains shown)
VH: EVQLVESGGGLVKPGGSLRLSCAASGFTFITYSMNWVRQAPGKGLEWVSSISSISSYIYYADSVKGRFTISRDNAKNSLYLQMDSLRAEDSAVYYCAREGIVGPTGYFDSWGQGTLVTVSS
VL: QSVLTQPPSVSAAPGQKVTISCSGSSSNIGNHYVSWYQQLPGTAPKLLIYDNNKRPSGIPDRFSGSKSGTSATLGITGLQTGDEADYYCGTWDSRLSAYWVFGGGTKLTVL
modifications: 74804_27I24A VH; 74804_27I24A VL
B2: 74804_45C18A: anti-IL1RAP mAb; VH SEQ ID NO:11, VL SEQ ID NO:27, κ light chain (antibody, V domains shown)
VH: EVQLVESGGGLVKPGGSLRLACAATGFTFSNVWMSWVRQGSGKGLEWVGRIKSKADGGTIDYAAPVKGRFTISRDDSKNTLYLQMNSLKTEDTAMYYCTTGELLGFDYWGQGTLVTVSS
VL: DIVMTQSPLSLPVTPGEPASISCRSGQSLLHSNGFNCLAWYLQKPGQSPQLLIYLGSNRASGVPDRFSGSGSGTDFTLKISRVEAEDVGVYYCMQTLQTPITFGQGTRLEIK
modifications: 74804_45C18A VH; 74804_45C18A VL

What was measured:
[1] = tested on: IL1-induced NFκB activity; experiment: HEK-BlueIL1β NFκB Reporter Assay; assay type: cell-based; details: nM range, read-out: IC50, inhibition of IL1-induced NFκB activity
Method: The HEK-Blue IL1β (Invivogen, Cat #hkb-il1b) cell line was used to monitor NFκB activity upon stimulation with IL1β cytokine. In this cell line the secreted embryonic alkaline phosphatase reporter gene (SEAP) is inducibly expressed under the control of IFN-β minimal promoter fused to NFκB/AP-1. Specificity to IL1β cytokine was achieved by blockage of TNF-α response. The cells were maintained in the presence of hygromycin (200 μg/ml) and zeocin (100 μg/ml).
For the functional assay, cells were plated at a density of 5×10^4 cells/well in 96-well plates. Cells were treated with each antibody at the highest concentration of 200 μg/ml followed by seven serial 1:3 dilutions and incubated for 45 minutes at 37° C./5% CO2 in humified incubator. Cells were then stimulated with IL1β ([…]) and incubated overnight at 37° C./5% CO2 in humified incubator. Every treatment was conducted in triplicates. Following, supernatants from each well were mixed with Quanti-Blue substrate (Invivogen, CA USA; Cat #rep-qb1) according to manufacturer's recommendations and secreted SEAP was measured using spectrophotometer at 650 nm.

cyIL1RAP = experiment: Kinetics of IL1RAP mAbs by Octet, cynomolgus IL1RAP; assay type: binding
Method: (§1) Antibodies were diluted in kinetics buffer (0.1% BSA, 0.02% Tween-20 and 0.05% NaN3 in PBS) and loaded onto 16 channel anti-mouse IgG Fc capture sensors (AMC, Cat #2001073; Sartorius, Göttingen, Germany). Human, huIL1RAP-His (Sino Biological, lot: MB08MA1301), and monkey, cyIL1RAP-His (Lake Pharma, NY, USA; lot:16205819371) proteins were titrated starting from the highest concentration of 100 nM and followed by 50 nM and 25 nM. Purified antibodies were loaded at 5 μg/ml in kinetics buffer. The experimental parameters selected to determine the kinetic constants were Baseline for 60 s, Loading of antibody to sensor for 180 s, Association of analyte to antibody for 120 s, Dissociation for 1200 s and Regeneration in 10 mM Glycine pH 1.7 for 4×30 s.
(§2) Regeneration cycle tracking was selected for 12 cycles. Binding to human and cynomolgus IL1RAP was measured and KD (M) kinetics were calculated. Also, the disassociation rate (Kdis) (1/s) and association rate (Kon) (1/Ms) kinetics were calculated (data not shown).

[2] = tested on: IL33-induced NFκB activity; experiment: HEK-BlueIL33 NFκB Reporter Assay; assay type: cell-based, human; details: nM range, read-out: IC50, inhibition of IL33-induced NFκB activity
Description: HEK-Blue IL33 (Invivogen, Cat #hkb-hil33) cell line was used to monitor NFκB activity upon stimulation with IL33 cytokine. The secreted embryonic alkaline phosphatase reporter gene (SEAP) is inducible expressed under the control of IFN-β minimal promoter fused to NFκB/AP-1. HEK-BlueIL33 cells were also generated upon stable transfection with human IL1RL1 (ST2) gene. Specificity to IL33 cytokine was achieved by blockage of TNF-α and IL1 response. Cells are maintained in the presence of hygromycin (200 μg/ml), zeocin (100 μg/ml) and blasticidin (10 μg/ml).
For the functional assay, cells were plated at a density of 5×10^4 cells/well in 96-well plates. Cells were treated with each antibody at the highest concentration of 200 μg/ml followed by seven serial 1:3 dilutions and incubated for 45 minutes at 37° C./5% CO^2 in humified incubator. Cells were then stimulated with IL33 (12 μM) and incubated overnight at 37° C./5% CO2 in humified incubator. Every treatment was conducted in triplicates. Following, supernatants from each well were mixed with Quanti-Blue substrate (Invivogen, Cat #rep-qb1) according to manufacturer's recommendations and secreted SEAP was measured using spectrophotometer at 650 nm.

[3] = tested on: patient-derived AML samples; experiment: Cell viability of patient-derived AML samples, CellTiter-Glo; assay type: cell-based, human; details: 15 patient-derived AML samples; 0.1-100 nM, 6 days
Method: Primary patient-derived AML cells collected using leukapheresis or peripheral blood draw were selected based on expression levels of IL1RAP, IL1R1 and IL1RL1. On study day 0, cell viability was calculated, and cells were seeded at a density of 20,000 viable cells/well in 96-well plates. Cells were treated on Day 0 with IL1RAP monoclonal antibodies at a concentration of 100 nM followed by 5-fold serial dilutions. Cytarabine treatment (5 μM) was used as a positive control. Plates were kept at 37° C./5% CO2 in humified incubator and media was not changed during the duration of the assay. On Day 6, plates were removed from incubator and equilibrated to room temperature for up to 30 minutes. Then CellTiter-Glo was added to wells (100 μl) and plates were mixed for 2 minutes on plate rocker, followed by 10 minutes incubation at room temperature. Luminescent signal was recorded using Tecan plate reader and IC50s were calculated.

hIL1RAP = molecular target: T1, hIL1RAP; experiment: Kinetics of IL1RAP mAbs by Octet, human IL1RAP; assay type: binding; set-up: extracellular domain His-tagged, Cat #10121-H08H; His; purchased Sino Biological lot MB08MA1301 (catalogue number not given)
Method: as §1, §2

[4] = tested on: IL1-induced downstream signaling (phospho-ERK, AKT, p38, NFκB) in A6L, CAL33, 5637, A549, Colo205, HCC70 cells; experiment: IL1 signaling in solid tumor cancer cells, Western blot; assay type: cell-based; details: antibody 20 μg/ml
Method: (§3) AML patient samples or cancer cells (AML, chronic myelogenous leukemia (CML), pancreatic, head and neck squamous cell carcinoma (HNSCC), bladder, non-small-cell lung carcinoma (NSCLC), colorectal and triple-negative breast cancer (TNBC)) were seeded in 6-well plates (5×10^5 cells/well) and incubated overnight at 37° C./5% CO2 in humified incubator. In experiments conducted in cancer cell lines, cells were washed 2× with PBS and serum-starved for 3 hours. Following, cells were treated with IL1RAP antibodies at concentration of 20 μg/ml and incubated for 1 h at 37° C./5% CO2 in humidified incubator. After 1 h, cells were treated with IL1β (Invivogen, cat: rcyec-hil1b), IL33 (Adipogen, cat: AG-40B-0160-C010) or IL36 cytokines (R@D, cat: 6836IL) at 100 ng/ml and incubated for 15 more minutes. Cells were harvested on ice after 1× wash with cold PBS and were centrifuged for 5 minutes at 5000 rpm at 4° C. Cells were then lysed with NP-40 buffer for 5 minutes on ice and centrifuged for 15 minutes at 15000 rpm at 4° C. Supernatants were collected and protein concentrations were determined by BCA (Thermofisher, Cat #PI23225). […] After 3× washes, ECL was applied (Thermofisher, Cat #32106) and proteins were detected after exposure to autoradioraphic films (Worldwide medical products, Cat #41101001) and protein intensity was quantitated using ImageJ software.

[5] = tested on: IL36-induced downstream signaling (phospho-ERK, AKT, p38, NFκB) in HPAC, CAL33, 5637 cells; experiment: IL36 signaling in solid tumor cancer cells, Western blot; assay type: cell-based; details: IL36γ, antibody 20 μg/ml
Method: as §3

Molecule	IC50 [1]	cyIL1RAP kdis(1/s) (cyIL1RAP)	cyIL1RAP kon(1/Ms) (cyIL1RAP)	IC50 [2]	Inhibition of viability [3]	hIL1RAP kdis(1/s) (hIL1RAP)	hIL1RAP kon(1/Ms) (hIL1RAP)	Inhibition of IL1 signaling (phosphorylation of ERK, AKT, p38 and NFκB) [4]	Inhibition of IL36 signaling (phosphorylation of ERK, AKT, p38 and NFκB) [5]
B1	1.96 nM	0.001071 s⁻¹	379500 M⁻¹ s⁻¹	8.31 nM	inhibition of viability of patient-derived AML samples	0.000747 s⁻¹	350400 M⁻¹ s⁻¹	–	–
B2	0.193 nM	0.000291 s⁻¹	337500 M⁻¹ s⁻¹	1.37 nM	–	0.000273 s⁻¹	421500 M⁻¹ s⁻¹	inhibited IL1 signaling in solid tumor cancer cells	Inhibition of IL36 signaling in solid tumor cancer cells
